T1: ComM (Vibrio cholerae, UniProt Q9KVV6 1-507)
T1 sequence: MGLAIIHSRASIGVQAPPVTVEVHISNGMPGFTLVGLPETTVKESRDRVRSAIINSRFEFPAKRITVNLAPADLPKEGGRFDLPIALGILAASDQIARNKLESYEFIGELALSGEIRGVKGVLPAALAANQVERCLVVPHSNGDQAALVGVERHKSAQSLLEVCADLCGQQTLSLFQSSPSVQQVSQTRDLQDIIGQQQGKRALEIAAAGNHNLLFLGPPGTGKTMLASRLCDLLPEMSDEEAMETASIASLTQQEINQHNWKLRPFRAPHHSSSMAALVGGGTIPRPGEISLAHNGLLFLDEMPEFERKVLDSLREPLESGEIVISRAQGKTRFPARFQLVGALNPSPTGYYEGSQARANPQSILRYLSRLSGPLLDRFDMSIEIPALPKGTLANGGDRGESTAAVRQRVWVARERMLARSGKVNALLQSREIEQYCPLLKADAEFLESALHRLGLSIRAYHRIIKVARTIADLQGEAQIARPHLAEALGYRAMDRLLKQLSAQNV


Tests used:
ComM [1] = target: ComM (Vibrio cholerae, UniProt Q9KVV6); details: AMP-PNP, nonhydrolyzable analogue; pH 7.5, 37 °C
ComM [2] = target: T1, ComM; experiment: EMSA

Molecule | three-strand branch migration assay, gel; oligomerization assay (ComM [1]) | binding result (ComM [2])
Nc1ncnc2c1ncn2[C@@H]1O[C@H](COP(=O)(O)OP(=O)(O)NP(=O)(O)O)[C@@H](O)[C@H]1O [AMP-PNP] | This activity was inhibited when ComM was incubated with AMP-PNP | 
ATTCCGGGGATCCGTCGACCTGCAGTTCAGAAGCAGCTCCAGCCTACA (ssDNA) [BBC742 ssDNA probe] |  | binds
BBC742/BBC743 dsDNA probe (dsDNA) DNA 1: ATTCCGGGGATCCGTCGACCTGCAGTTCAGAAGCAGCTCCAGCCTACA DNA 2: TGTAGGCTGGAGCTGCTTCTGAACTGCAGGTCGACGGATCCCCGGAAT |  | binds

Reference: PMC6158740 (Nucleic Acids Research, 2018)
